Measured values from patent US6686449B2, “Mutant presenilin 1 polypeptides” (Pharmacia & Upjohn Company, priority 2000, dated 2004).

Legend:
[1] = system: APP processing in H167-11 HEK cells (APP695V642F-KK); assay: Transient transfection of constructs, Elisa of Aβ in conditioned media, H167-11 cell line; assay type: cell-based, human; conditions: 48 hours after transfection
Method: (§1) The construction of the cell lines used in this section has been described in U.S. Pat. No. 6,440,698. Transient transfections were carried out in 4 different cell lines: H125.3-16, N2A-APP, H143.3-23, and H167-11. The H125.3-16 cell line expresses human APP695 swedish mutant cDNA with a dilyine motif in HEK-293 cells, and the H 143.3-23 cell line expresses human APP695 swedish mutant cDNA in HEK-293 cells. The H167-1 1 cell line was developed using the same methods as the H125.3-16 and H143.3-23 cell lines, except the 167 construct DNA (pTRES-EGFP harboring the human APP695 V642F mutant cDNA containing a dilyine motif) was used. […]
(§2) Twenty-four hours prior to transfection, cells were plated at 6×10^5 cells per well of a six-well dish. […] Conditioned media was collected from the cells 48 hours after transfection and then analyzed by Elisa assay for levels of Aβ1-40 and Aβ1-42. […]

[2] = system: APP processing in H125.3-16 (APP695sw-KK) and H143.3-23 (APP695sw) HEK cells; assay: Transient transfection of constructs, Elisa of Aβ in conditioned media, HEK APP695sw cell lines; assay type: cell-based, human; conditions: 48 hours after transfection
Method: as §1, §2

B1: BACE: beta-secretase (Asp2) plasmid transfected into the cell lines (protein, UniProt P56817 46-501, looked up)
Beta-secretase 1: ETDEEPEEPGRRGSFVEMVDNLRGKSGQGYYVEMTVGSPPQTLNILVDTGSSNFAVGAAPHPFLHRYYQRQLSSTYRDLRKGVYVPYTQGKWEGELGTDLVSIPHGPNVTVRANIAAITESDKFFINGSNWEGILGLAYAEIARPDDSLEPFFDSLVKQTHVPNLFSLQLCGAGFPLNQSEVLASVGGSMIIGGIDHSLYTGSLWYTPIRREWYYEVIIVRVEINGQDLKMDCKEYNYDKSIVDSGTTNLRLPKKVFEAAVKSIKAASSTEKFPDGFWLGEQLVCWQAGTTPWNIFPVISLYLMGEVTNQSFRITILPQQYLRPVEDVATSQDDCYKFAISQSSTGTVMGAVIMEGFYVVFDRARKRIGFAVSACHVHDEFRTAAVEGPFVTLDMEDCGYNIPQTDESTLMTIAYVMAAICALFMLPLCLMVCQWRCLRCLRQQHDDFADDISLLK
B1 was tested, and the “change of Aβ1-40 or Aβ1-42 versus mock transfected cells” value [1] was “increase”, the “change of Aβ1-40 in conditioned media versus mock transfected cells” value [2] was “robust increase” and the “change of Aβ1-42 in conditioned media versus mock transfected cells” value [2] was “robust increase”.
